Measurements published in patent US20030165934.

What was measured:
[1] = tested on: full length Flag-ATRIP protein purified from insect cells following baculovirus infection
[2] = tested on: NH2-terminal fragment of ATRIP isolated from bacteria
[3] = tested on: Myc(3x)-tagged ATRIP

Chain of Flag-ATR (ATR tagged with a Flag epitope, overexpressed in 293/293T cells) (chain, as listed by the source): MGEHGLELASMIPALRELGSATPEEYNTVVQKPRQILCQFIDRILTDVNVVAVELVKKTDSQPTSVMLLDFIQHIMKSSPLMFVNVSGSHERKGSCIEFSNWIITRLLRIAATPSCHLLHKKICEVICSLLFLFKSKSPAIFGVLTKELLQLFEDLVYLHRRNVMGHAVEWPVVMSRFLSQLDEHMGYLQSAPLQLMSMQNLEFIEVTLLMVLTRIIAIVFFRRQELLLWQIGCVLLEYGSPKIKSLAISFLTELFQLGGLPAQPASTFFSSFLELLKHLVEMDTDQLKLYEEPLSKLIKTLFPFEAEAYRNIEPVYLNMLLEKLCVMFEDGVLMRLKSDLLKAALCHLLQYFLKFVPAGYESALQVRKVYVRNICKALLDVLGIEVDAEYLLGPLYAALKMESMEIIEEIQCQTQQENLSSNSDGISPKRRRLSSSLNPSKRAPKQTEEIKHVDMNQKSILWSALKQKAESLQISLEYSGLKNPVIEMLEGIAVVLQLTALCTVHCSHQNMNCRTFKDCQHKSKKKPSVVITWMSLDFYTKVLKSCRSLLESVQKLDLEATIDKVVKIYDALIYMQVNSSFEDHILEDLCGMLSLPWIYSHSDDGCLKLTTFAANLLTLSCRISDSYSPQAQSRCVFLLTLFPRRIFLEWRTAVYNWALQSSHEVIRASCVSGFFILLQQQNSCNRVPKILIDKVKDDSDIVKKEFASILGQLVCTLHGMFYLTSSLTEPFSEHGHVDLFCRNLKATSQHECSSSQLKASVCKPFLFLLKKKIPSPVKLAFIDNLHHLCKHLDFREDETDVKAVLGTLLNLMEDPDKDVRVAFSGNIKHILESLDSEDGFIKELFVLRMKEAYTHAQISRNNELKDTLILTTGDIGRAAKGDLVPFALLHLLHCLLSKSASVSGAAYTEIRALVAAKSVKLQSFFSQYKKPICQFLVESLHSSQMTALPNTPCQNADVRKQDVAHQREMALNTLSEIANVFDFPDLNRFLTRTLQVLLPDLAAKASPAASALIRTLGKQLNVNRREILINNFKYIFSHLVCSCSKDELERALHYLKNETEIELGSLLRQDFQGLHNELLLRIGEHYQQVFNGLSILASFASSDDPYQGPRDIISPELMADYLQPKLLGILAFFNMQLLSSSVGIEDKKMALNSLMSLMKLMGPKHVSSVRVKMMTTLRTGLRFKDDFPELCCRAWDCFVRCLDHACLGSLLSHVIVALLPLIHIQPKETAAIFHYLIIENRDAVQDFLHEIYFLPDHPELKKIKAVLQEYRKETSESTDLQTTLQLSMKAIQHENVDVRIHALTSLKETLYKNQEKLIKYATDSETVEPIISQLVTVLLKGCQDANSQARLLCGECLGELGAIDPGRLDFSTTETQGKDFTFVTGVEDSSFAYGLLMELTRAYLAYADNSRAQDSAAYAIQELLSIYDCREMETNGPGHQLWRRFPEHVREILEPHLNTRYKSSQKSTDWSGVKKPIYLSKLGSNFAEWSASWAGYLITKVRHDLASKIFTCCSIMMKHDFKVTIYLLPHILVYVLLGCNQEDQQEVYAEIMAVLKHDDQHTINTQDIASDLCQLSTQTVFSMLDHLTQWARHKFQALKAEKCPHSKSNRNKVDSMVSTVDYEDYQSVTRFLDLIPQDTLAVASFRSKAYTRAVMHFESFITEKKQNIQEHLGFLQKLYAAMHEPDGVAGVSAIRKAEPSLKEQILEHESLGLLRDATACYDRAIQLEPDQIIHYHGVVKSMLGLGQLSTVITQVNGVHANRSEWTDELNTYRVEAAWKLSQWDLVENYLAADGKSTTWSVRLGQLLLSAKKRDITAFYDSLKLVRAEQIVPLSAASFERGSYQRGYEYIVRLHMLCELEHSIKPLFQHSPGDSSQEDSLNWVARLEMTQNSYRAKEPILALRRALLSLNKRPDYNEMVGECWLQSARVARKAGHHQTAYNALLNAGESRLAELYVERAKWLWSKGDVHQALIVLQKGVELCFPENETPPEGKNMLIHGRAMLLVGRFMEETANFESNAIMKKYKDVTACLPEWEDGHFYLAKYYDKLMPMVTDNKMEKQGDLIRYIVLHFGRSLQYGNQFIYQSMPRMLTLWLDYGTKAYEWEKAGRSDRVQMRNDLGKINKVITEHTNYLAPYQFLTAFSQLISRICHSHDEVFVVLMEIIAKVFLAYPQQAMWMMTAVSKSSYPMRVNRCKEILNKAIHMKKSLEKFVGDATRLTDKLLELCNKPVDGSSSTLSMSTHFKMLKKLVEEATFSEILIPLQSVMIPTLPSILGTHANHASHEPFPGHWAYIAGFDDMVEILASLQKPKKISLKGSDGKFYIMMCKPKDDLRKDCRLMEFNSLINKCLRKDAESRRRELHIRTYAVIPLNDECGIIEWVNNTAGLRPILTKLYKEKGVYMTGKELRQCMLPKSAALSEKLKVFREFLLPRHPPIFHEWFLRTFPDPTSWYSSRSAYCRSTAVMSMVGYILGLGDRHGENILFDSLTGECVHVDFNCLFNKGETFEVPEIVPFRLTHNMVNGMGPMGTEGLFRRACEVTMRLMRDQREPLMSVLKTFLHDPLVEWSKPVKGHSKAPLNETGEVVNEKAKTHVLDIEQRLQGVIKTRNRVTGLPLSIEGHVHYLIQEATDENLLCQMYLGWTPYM
Chain of NH2-terminal fragment of ATRIP isolated from bacteria (chain, as listed by the source): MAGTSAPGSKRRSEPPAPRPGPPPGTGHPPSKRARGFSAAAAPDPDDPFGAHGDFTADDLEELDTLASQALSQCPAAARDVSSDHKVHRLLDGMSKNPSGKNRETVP

Substance: Flag-ATR (ATR tagged with a Flag epitope, overexpressed in 293/293T cells)
- phosphorylation in a kinase reaction [1]: recombinant full-length ATRIP isolated from baculovirus-infected insect cells and an NH2-terminal fragment of ATRIP isolated from bacteria could both be phosphorylated when placed in a kinase reaction with ATR isolated from human cells
- phosphorylation in a kinase reaction [2]: recombinant full-length ATRIP isolated from baculovirus-infected insect cells and an NH2-terminal fragment of ATRIP isolated from bacteria could both be phosphorylated when placed in a kinase reaction with ATR isolated from human cells
- ^32P-labeling in kinase assay [3]: kinase assays with Flag-ATR immunoprecipitated from cells that also expressed Myc-ATRIP revealed ^32P-labeling of co-immunoprecipitated Myc-ATRIP
